This is an account of results in the Human Domainome abundance scans (Beltran et al. 2025).

± gives the uncertainty stated by the source.

The data set is described as follows: abundance fitness (aPCA) (normalised: wild type 0, dead -1); higher = more abundant; growth selection in yeast, the domain comes from the species named. The following applies: Homo sapiens.
For the substance “E3 ubiquitin-protein ligase NEDD4-like R223D, Q96PU5”, the abundance fitness is -0.481 ± 0.098.

Turning to “E3 ubiquitin-protein ligase NEDD4-like R223E, Q96PU5”, the abundance fitness was -0.378 ± 0.087.

Take “E3 ubiquitin-protein ligase NEDD4-like R223F, Q96PU5”: the abundance fitness is -0.461 ± 0.12.

In the case of “E3 ubiquitin-protein ligase NEDD4-like R223G, Q96PU5”, the abundance fitness was -0.696 ± 0.068.

Consider “E3 ubiquitin-protein ligase NEDD4-like R223H, Q96PU5”, for which the abundance fitness is -0.18 ± 0.13.

For “E3 ubiquitin-protein ligase NEDD4-like R223K, Q96PU5”, the abundance fitness turned out to be 0.013 ± 0.1.

Take “E3 ubiquitin-protein ligase NEDD4-like R223L, Q96PU5”: the abundance fitness is -0.206 ± 0.053.

Take “E3 ubiquitin-protein ligase NEDD4-like R223M, Q96PU5”: the abundance fitness was -0.28 ± 0.067.

As to “E3 ubiquitin-protein ligase NEDD4-like R223N, Q96PU5”, the abundance fitness is -0.082 ± 0.088.

Consider “E3 ubiquitin-protein ligase NEDD4-like R223P, Q96PU5”, for which the abundance fitness was -0.145 ± 0.11.

Turning to “E3 ubiquitin-protein ligase NEDD4-like R223Q, Q96PU5”, the abundance fitness is -0.153 ± 0.082.

“E3 ubiquitin-protein ligase NEDD4-like R223S, Q96PU5”: the abundance fitness is -0.154 ± 0.061.

Consider “E3 ubiquitin-protein ligase NEDD4-like R223T, Q96PU5”, for which the abundance fitness is -0.393 ± 0.094.

As to “E3 ubiquitin-protein ligase NEDD4-like R223V, Q96PU5”, the abundance fitness is -0.249 ± 0.064.

As to “E3 ubiquitin-protein ligase NEDD4-like R223Y, Q96PU5”, the abundance fitness is -0.41 ± 0.1.

With “E3 ubiquitin-protein ligase NEDD4-like S184A, Q96PU5”, the abundance fitness was -0.461 ± 0.096.

Consider “E3 ubiquitin-protein ligase NEDD4-like S184C, Q96PU5”, for which the abundance fitness is -0.457 ± 0.1.

As for “E3 ubiquitin-protein ligase NEDD4-like S184E, Q96PU5”, the abundance fitness was -0.507 ± 0.49.

“E3 ubiquitin-protein ligase NEDD4-like S184F, Q96PU5” returned an abundance fitness of 0.13 ± 0.084.

On to “E3 ubiquitin-protein ligase NEDD4-like S184G, Q96PU5”, for which the abundance fitness was -0.476 ± 0.11.

In the case of “E3 ubiquitin-protein ligase NEDD4-like S184H, Q96PU5”, the abundance fitness is -0.437 ± 0.15.

As to “E3 ubiquitin-protein ligase NEDD4-like S184L, Q96PU5”, the abundance fitness was -0.599 ± 0.14.

Take “E3 ubiquitin-protein ligase NEDD4-like S184M, Q96PU5”: the abundance fitness worked out at 0.884 ± 0.2.

Turning to “E3 ubiquitin-protein ligase NEDD4-like S184N, Q96PU5”, the abundance fitness is -0.554 ± 0.4.

Consider “E3 ubiquitin-protein ligase NEDD4-like S184P, Q96PU5”, for which the abundance fitness was -0.682 ± 0.26.

Consider “E3 ubiquitin-protein ligase NEDD4-like S184R, Q96PU5”, for which the abundance fitness was -1.23 ± 0.22.

For “E3 ubiquitin-protein ligase NEDD4-like S184V, Q96PU5”, the abundance fitness was -0.505 ± 0.13.

On to “E3 ubiquitin-protein ligase NEDD4-like S184W, Q96PU5”, for which the abundance fitness was -1.33 ± 0.15.

For “E3 ubiquitin-protein ligase NEDD4-like S184Y, Q96PU5”, the abundance fitness was -0.099 ± 0.12.

As to “E3 ubiquitin-protein ligase NEDD4-like S225A, Q96PU5”, the abundance fitness is -0.068 ± 0.073.

Turning to “E3 ubiquitin-protein ligase NEDD4-like S225C, Q96PU5”, the abundance fitness was -0.29 ± 0.099.

For “E3 ubiquitin-protein ligase NEDD4-like S225D, Q96PU5”, the abundance fitness is -0.006 ± 0.065.

The substance “E3 ubiquitin-protein ligase NEDD4-like S225E, Q96PU5” showed an abundance fitness of 0.041 ± 0.081.

Turning to “E3 ubiquitin-protein ligase NEDD4-like S225F, Q96PU5”, the abundance fitness was -0.267 ± 0.081.

As for “E3 ubiquitin-protein ligase NEDD4-like S225G, Q96PU5”, the abundance fitness is -0.072 ± 0.068.

With “E3 ubiquitin-protein ligase NEDD4-like S225H, Q96PU5”, the abundance fitness is -0.264 ± 0.14.

For “E3 ubiquitin-protein ligase NEDD4-like S225I, Q96PU5”, the abundance fitness was -0.038 ± 0.1.

“E3 ubiquitin-protein ligase NEDD4-like S225K, Q96PU5” came in with an abundance fitness of 0.019 ± 0.095.

For the substance “E3 ubiquitin-protein ligase NEDD4-like S225L, Q96PU5”, the abundance fitness was -0.095 ± 0.056.

For the substance “E3 ubiquitin-protein ligase NEDD4-like S225M, Q96PU5”, the abundance fitness was -0.136 ± 0.092.

Substance “E3 ubiquitin-protein ligase NEDD4-like S225P, Q96PU5” displayed an abundance fitness of 0.018 ± 0.083.

Substance “E3 ubiquitin-protein ligase NEDD4-like S225Q, Q96PU5” showed an abundance fitness of 0.048 ± 0.063.

Consider “E3 ubiquitin-protein ligase NEDD4-like S225R, Q96PU5”, for which the abundance fitness is -0.024 ± 0.064.

For “E3 ubiquitin-protein ligase NEDD4-like S225T, Q96PU5”, the abundance fitness was -0.066 ± 0.079.

Consider “E3 ubiquitin-protein ligase NEDD4-like S225V, Q96PU5”, for which the abundance fitness is -0.018 ± 0.076.

For “E3 ubiquitin-protein ligase NEDD4-like S225W, Q96PU5”, the abundance fitness is -0.312 ± 0.068.

With “E3 ubiquitin-protein ligase NEDD4-like S225Y, Q96PU5”, the abundance fitness is -0.395 ± 0.12.

In the case of “E3 ubiquitin-protein ligase NEDD4-like S230A, Q96PU5”, the abundance fitness was -0.024 ± 0.058.

As for “E3 ubiquitin-protein ligase NEDD4-like S230C, Q96PU5”, the abundance fitness is -0.067 ± 0.066.

On to “E3 ubiquitin-protein ligase NEDD4-like S230D, Q96PU5”, for which the abundance fitness was -0.023 ± 0.095.

For “E3 ubiquitin-protein ligase NEDD4-like S230E, Q96PU5”, the abundance fitness was -0.034 ± 0.066.

Consider “E3 ubiquitin-protein ligase NEDD4-like S230F, Q96PU5”, for which the abundance fitness was -0.139 ± 0.11.

Regarding “E3 ubiquitin-protein ligase NEDD4-like S230G, Q96PU5”, the abundance fitness was -0.081 ± 0.054.

“E3 ubiquitin-protein ligase NEDD4-like S230H, Q96PU5”: the abundance fitness is -0.002 ± 0.09.

Take “E3 ubiquitin-protein ligase NEDD4-like S230I, Q96PU5”: the abundance fitness is -0.274 ± 0.13.

Turning to “E3 ubiquitin-protein ligase NEDD4-like S230K, Q96PU5”, the abundance fitness was -0.186 ± 0.092.

“E3 ubiquitin-protein ligase NEDD4-like S230L, Q96PU5”: the abundance fitness was -0.29 ± 0.071.

With “E3 ubiquitin-protein ligase NEDD4-like S230N, Q96PU5”, the abundance fitness came out at 0.108 ± 0.071.

“E3 ubiquitin-protein ligase NEDD4-like S230P, Q96PU5”: the abundance fitness was -0.027 ± 0.085.

Regarding “E3 ubiquitin-protein ligase NEDD4-like S230Q, Q96PU5”, the abundance fitness turned out to be 0.025 ± 0.077.

Turning to “E3 ubiquitin-protein ligase NEDD4-like S230R, Q96PU5”, the abundance fitness was -0.095 ± 0.066.

Consider “E3 ubiquitin-protein ligase NEDD4-like S230T, Q96PU5”, for which the abundance fitness is -0.051 ± 0.067.

As for “E3 ubiquitin-protein ligase NEDD4-like S230V, Q96PU5”, the abundance fitness is -0.136 ± 0.059.

Take “E3 ubiquitin-protein ligase NEDD4-like S230W, Q96PU5”: the abundance fitness is -0.496 ± 0.085.

Take “E3 ubiquitin-protein ligase NEDD4-like S230Y, Q96PU5”: the abundance fitness is -0.204 ± 0.12.

In the case of “E3 ubiquitin-protein ligase NEDD4-like S231A, Q96PU5”, the abundance fitness is -0.099 ± 0.075.

“E3 ubiquitin-protein ligase NEDD4-like S231C, Q96PU5”: the abundance fitness was -0.142 ± 0.09.

As to “E3 ubiquitin-protein ligase NEDD4-like S231D, Q96PU5”, the abundance fitness is -0.425 ± 0.11.

Turning to “E3 ubiquitin-protein ligase NEDD4-like S231E, Q96PU5”, the abundance fitness amounted to 0.134 ± 0.089.

In the case of “E3 ubiquitin-protein ligase NEDD4-like S231F, Q96PU5”, the abundance fitness was -0.275 ± 0.11.

For “E3 ubiquitin-protein ligase NEDD4-like S231G, Q96PU5”, the abundance fitness was -0.049 ± 0.064.

With “E3 ubiquitin-protein ligase NEDD4-like S231H, Q96PU5”, the abundance fitness was -0.331 ± 0.13.

As for “E3 ubiquitin-protein ligase NEDD4-like S231I, Q96PU5”, the abundance fitness is 0.087 ± 0.12.

Regarding “E3 ubiquitin-protein ligase NEDD4-like S231K, Q96PU5”, the abundance fitness was -0.273 ± 0.15.

The substance “E3 ubiquitin-protein ligase NEDD4-like S231L, Q96PU5” yielded an abundance fitness of 0.002 ± 0.088.

As for “E3 ubiquitin-protein ligase NEDD4-like S231M, Q96PU5”, the abundance fitness was -0.222 ± 0.08.

As for “E3 ubiquitin-protein ligase NEDD4-like S231N, Q96PU5”, the abundance fitness was -0.385 ± 0.12.

For the substance “E3 ubiquitin-protein ligase NEDD4-like S231P, Q96PU5”, the abundance fitness was -0.008 ± 0.08.

In the case of “E3 ubiquitin-protein ligase NEDD4-like S231Q, Q96PU5”, the abundance fitness was 0.242 ± 0.14.

For the substance “E3 ubiquitin-protein ligase NEDD4-like S231R, Q96PU5”, the abundance fitness is 0.002 ± 0.074.

For the substance “E3 ubiquitin-protein ligase NEDD4-like S231T, Q96PU5”, the abundance fitness amounted to 0.139 ± 0.098.

For the substance “E3 ubiquitin-protein ligase NEDD4-like S231V, Q96PU5”, the abundance fitness was -0.062 ± 0.067.

As for “E3 ubiquitin-protein ligase NEDD4-like S231Y, Q96PU5”, the abundance fitness is -0.228 ± 0.11.

As to “E3 ubiquitin-protein ligase NEDD4-like T209C, Q96PU5”, the abundance fitness is -0.146 ± 0.067.
